Our source for the daratumumab-induced fratricide of expanded NK cells (4 h, 1 µg/mL, PI staining, 3-color flow cytometry) (times lower (g-NK versus cNK)) values is patent US20240316102A1.

In this experiment the target is CD38 on expanded NK cells (g-NK or cNK) (human) (UniProt P28907). As to the kind of experiment: cell-based or functional assay.

Regarding daratumumab (antibody), the daratumumab-induced fratricide of expanded NK cells (4 h, 1 µg/mL, PI staining, 3-color flow cytometry) (times lower (g-NK versus cNK)) was determined as 13.
